In US9885709B2, “Determination of a midregional proadrenomedullin partial peptide in biological fluids for diagnostic purposes, and immunoassays for carrying out such a determination” (B.R.A.H.M.S. GMBH, priority 2003, dated 2018):
Where “and” joins values, the source holds several entries; their conditions need not be identical. Identical values can stand only once.

Assay: Stability investigation of mid-proAM in sepsis sera stored at room temperature
Assay type: in vitro ADME
Description: For examining the question as to whether problems are likely in a measurement of mid-proAM because of insufficient stability of the mid-proAM in a sample or measuring solution, 20 sepsis sera were each measured in a fresh state and after storage for 3 days at room temperature. […] This proven stability of mid-proAM is a major advantage in terms of handling aspects for diagnosis.

mid-proAM: peptide which contains the amino acids 45-92 of pre-proAM or consists thereof (SEQ ID NO:3); endogenous analyte, also synthesized as standard (ELRMSSSYPTGLADVKAGPAQTLIRPQDMKGASRSPEDSSPDAARIRV; listed as Homo sapiens)
immunoreactivity after storage (20 sepsis sera, storage for 3 days at room temperature): virtually unchanged | Change (Day 3 value as percent of Day 0 value, individual sepsis serum, 3 days at room temperature): 92.7% and 95.7% and 109.6% and 102.8% and 96.4% and 99.9% and 106.3% and 102.1% and 95.2% and 110.7% and 80.0% and 105.5% and 102.2% and 103.4% and 89.5% and 94.1% and 98.8% and 98.1% and 97.0% and 95.4% | mid-proAM Day = 3 (individual sepsis serum (one patient), after storage for 3 days at room temperature): 1.0 nmol/l and 1.2 nmol/l and 2.1 nmol/l (2×) and 2.7 nmol/l (2×) and 3.1 nmol/l and 4.9 nmol/l and 5.9 nmol/l and 3.4 nmol/l and 4.6 nmol/l and 2.4 nmol/l and 1.3 nmol/l and 1.5 nmol/l (2×) and 1.8 nmol/l (2×) and 2.0 nmol/l and 6.1 nmol/l and 3.2 nmol/l | mid-proAM Day = 0 (individual sepsis serum (one patient), measured in a fresh state): 1.1 nmol/L and 1.3 nmol/L and 1.9 nmol/L and 2.6 nmol/L and 2.8 nmol/L and 3.1 nmol/L and 4.6 nmol/L and 5.8 nmol/L and 3.6 nmol/L and 4.2 nmol/L and 3.0 nmol/L and 1.2 nmol/L and 1.5 nmol/L and 1.7 nmol/L and 2.0 nmol/L and 2.1 nmol/L and 6.2 nmol/L and 3.3 nmol/L and 2.2 nmol/L and 1.6 nmol/L
